Measurements published in US20210009693A1 (MABSPACE BIOSCIENCES SUZHOU, published 2021).

What was measured:
hPD-L2-Fc = molecular target: T1, hPD-L2-Fc (human, UniProt Q9BQ51 20-219); experiment: ELISA, plate coated with hPD-L2-Fc
T1 construct: Acrobiosystems PD2-H5251; also called human PD-L2 protein; not shown: Fc tag
T1 sequence (looked up): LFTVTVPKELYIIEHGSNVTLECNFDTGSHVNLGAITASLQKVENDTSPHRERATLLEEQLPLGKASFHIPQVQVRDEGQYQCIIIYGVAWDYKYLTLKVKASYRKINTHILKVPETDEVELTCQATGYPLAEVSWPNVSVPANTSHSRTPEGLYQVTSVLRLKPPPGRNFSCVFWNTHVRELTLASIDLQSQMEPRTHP
Method: Briefly, high-binding clear polystyrene 96 well plates (Nunc) were coated with 100 μl/well of a 0.5 μg/ml human PD-L1-Fc (Acrobiosystems, Cat #PD1-H5258) or 100 μl/well of a 1 μg/ml hPD-L2-Fc (Acrobiosystems, Cat #PD2-H5251), respectively, in high pH coating buffer (0.16% Na2CO3+0.3% NaHCO₃, pH 9.8) and incubated overnight at 4° C. Then the plates were washed once on an automatic plate washer using washing buffer (PBS+0.1% Tween 20 (Amresco)). 200 μl of blocking buffer (PBS+1% BSA+1% normal goat serum+0.05% Tween-20) was added to each well and incubated for 2 hours at room temp. Then add 100 μl 2 μg/ml purified PD-L1 antibodies with dilution buffer (PBS+1% BSA+1% normal goat serum+0.01% Tween-20) and incubate for 1 hour at RT. The plates were then washed 3 times with washing buffer. 100 μl/well of a solution of HRP conjugated goat anti-mouse IgG antibody (1:20000, Abcam) in dilution buffer was then added to each well of the plate. After that the ELISA plates were allowed to incubate for 60 min at RT then the plates were washed 3 times with 250 μl/well washing buffer. Finally, 100 μl/well of TMB was added to each well for 15 min and the reaction was terminated using 50 ul/well of 0.16 M/L sulfuric acid. The plates were read on a Thermo Multiscan FC at 450 nM (see FIG. 6G).

[1] = molecular target: T2, wild type human PD-L1-Fc protein (SEQ ID NO: 107) (human); experiment: ELISA on captured PD-L1-Fc, as in Example 18A
T2 construct: Extracellular human PD-L1 (amino acid 19-238) with Fc fragment of human IgG1, expressed in 293T cells and used as culture supernatant; also called WT PD-L1; wild-type PD-L1
T2 sequence (chain, as listed by the source limits assumed): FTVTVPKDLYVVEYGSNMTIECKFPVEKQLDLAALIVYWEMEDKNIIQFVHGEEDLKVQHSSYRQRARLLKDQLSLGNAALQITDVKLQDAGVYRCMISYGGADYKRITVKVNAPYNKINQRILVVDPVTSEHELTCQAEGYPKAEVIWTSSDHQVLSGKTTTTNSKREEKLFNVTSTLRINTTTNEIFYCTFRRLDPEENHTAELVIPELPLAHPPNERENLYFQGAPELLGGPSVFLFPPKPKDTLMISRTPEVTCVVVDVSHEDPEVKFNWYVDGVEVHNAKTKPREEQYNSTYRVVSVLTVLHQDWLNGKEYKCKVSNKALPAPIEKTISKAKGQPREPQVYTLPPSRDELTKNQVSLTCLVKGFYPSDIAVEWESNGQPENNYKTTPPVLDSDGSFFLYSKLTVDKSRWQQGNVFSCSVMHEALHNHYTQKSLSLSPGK

[2] = molecular target: T3, human PD-L1-Fc mutant E58A (human); experiment: ELISA on captured PD-L1-Fc, as in Example 18A
T3 construct: Position 58 counts on native human PD-L1 (NP_054862.1); also called E58A mutant
T3 sequence (chain, as listed by the source E58A E58A limits assumed): as the sequence (chain, as listed by the source limits assumed) above, with E40A counted along it

[3] = molecular target: T4, Recombinant Human PD-L1/CD274 Protein (hPD-L1-his) (human, UniProt Q9NZQ7 19-238); experiment: ELISA, purified mouse antibody on coated hPD-L1-his
T4 construct: range 19-238; ACRO Biosystem PD1-H5229, made in HEK293; also called human PD-L1-his; hPD-L-his
T4 sequence (Q9NZQ7 other isoform, or with tags, fused parts or gaps limits assumed): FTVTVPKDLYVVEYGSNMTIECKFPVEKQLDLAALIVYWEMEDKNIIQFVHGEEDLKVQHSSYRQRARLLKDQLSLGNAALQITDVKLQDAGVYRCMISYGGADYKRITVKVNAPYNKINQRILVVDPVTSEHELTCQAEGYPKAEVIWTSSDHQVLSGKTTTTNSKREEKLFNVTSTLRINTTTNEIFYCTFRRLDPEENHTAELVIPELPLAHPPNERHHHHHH
Method: High-binding clear polystyrene 96 well plates (Nunc) were coated with 100 μl/well of a 0.5 μg/ml hPD-L1-his in high pH coating buffer and incubated overnight 4° C. Then plates were washed once on an automatic plate washer using washing buffer (PBS+0.1% Tween 20 (Sigma)). 200 μl of blocking buffer (PBS+1% BSA+1% normal goat serum+0.05% Tween-20) was added to each well and incubated 2 hours at room temp. Then add serially diluted purified antibodies with dilution buffer (PBS+1% BSA+1% normal goat serum+0.01% Tween-20) and incubate for 1 hour at RT. The plates were then washed 3 times using the method described above. 100 μl/well of a solution of HRP conjugated goat anti-mouse Fc antibody (Abcam) in dilution buffer was then added to each well of the plate. After that the ELISA plates were allowed to incubate for 60 min at RT then plates were washed 3 times with 250 μl/well washing buffer. Finally, 100 μl/well of TMB was added to each well and was terminated using 0.64M H₂SO₄. The plates were read on a Thermo Multiscan FC at 450 nM (see FIG. 3).

[4] = molecular target: T5, Human PD-L1/CD274 with C-Fc Tag (hPD-L1-Fc) (human, UniProt Q9NZQ7 19-238); experiment: blocking ELISA on coated hPD-L1-Fc; blocked ligand: biotinylated hPD-1-Fc-N297A
T5 construct: range 19-238; ACRO Biosystem PD1-H5258, made in HEK293; also called human PD-L1-Fc; not shown: Fc fragment of human IgG1 at C-terminus
T5 sequence (Q9NZQ7 19-238 limits assumed): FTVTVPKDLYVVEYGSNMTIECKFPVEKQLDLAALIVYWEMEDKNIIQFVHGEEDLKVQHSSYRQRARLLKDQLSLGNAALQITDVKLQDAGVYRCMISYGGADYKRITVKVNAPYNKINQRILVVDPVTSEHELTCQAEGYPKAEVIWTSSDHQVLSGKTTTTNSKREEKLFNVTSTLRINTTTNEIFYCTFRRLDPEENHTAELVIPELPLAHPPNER
Method: High-binding clear polystyrene 96 well plates (Nunc) were coated with 100 μl/well of coating solution consisting of 0.5 μg/ml hPD-L1-Fc overnight at 4° C. Then washed once on an automatic plate washer using washing buffer PBS+0.1% Tween 20 (Sigma). 200 μl of blocking buffer (PBS+1% BSA+1% normal goat serum+0.05% Tween-20) was added to each well and incubated for 2 hours at room temperature. Then add serial diluted antibodies (from 10 μg/ml to 0.0006 μg/ml) with dilution buffer (PBS+1% BSA+1% normal goat serum+0.01% Tween-20) and incubate for 1 hour at RT. The plates were then washed 3 times using the method described above. […] After the plates were washed 3 times, 100 μl/well of a solution of HRP conjugated Neutravidin antibody (Pierce) diluted in dilution buffer was then added to each well of the plate. After that the ELISA plates were allowed to incubate for 60 min at RT then plates were washed 3 times with 250 μl/well washing buffer. Finally, 100 μl/well of TMB was added to each well and reaction was terminated using 0.64M H₂SO₄. The plates were read on a Thermo Multiscan FC at 450 nM (see FIG. 4A).

[5] = molecular target: T6, Recombinant Mouse PD-L1/CD274 Protein (mPD-L1-his) (mouse, UniProt Q9EP73 19-238); experiment: ELISA, 20 ug/ml antibody on coated mouse PD-L1 (his-tagged per text, mPD-L1-Fc per sheet title)
T6 construct: range 19-238; ACRO Biosystem PD1-M5220; also called mouse PD-L1-his
T6 sequence (Q9EP73 other isoform, or with tags, fused parts or gaps limits assumed): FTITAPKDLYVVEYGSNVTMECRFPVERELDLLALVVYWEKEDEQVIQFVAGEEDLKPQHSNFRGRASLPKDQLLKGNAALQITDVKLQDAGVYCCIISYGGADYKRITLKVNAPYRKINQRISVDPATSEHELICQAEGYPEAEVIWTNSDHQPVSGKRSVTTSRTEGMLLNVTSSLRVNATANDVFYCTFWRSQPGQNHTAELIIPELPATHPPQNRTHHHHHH
Method: High-binding clear polystyrene 96 well plates (Nunc) were coated with 100 μl/well of 1 μg/ml mouse PD-L1-his in high pH coating buffer and incubated overnight at 4° C. Then plates were washed once on an automatic plate washer using washing buffer (PBS+0.1% Tween 20 (Sigma)). 200 μl of blocking buffer (PBS+1% BSA+1% normal goat serum+0.05% Tween-20) was added to each well and incubated for 2 hours at room temp. Then add 20 μg/ml purified hybridoma mouse antibodies in dilution buffer (PBS+1% BSA+1% normal goat serum+0.01% Tween-20) and incubate for 1 hour at RT. The plates were then washed 3 times with 250 μl/well washing buffer. 100 μl/well of a solution of HRP conjugated goat anti-mouse Fc antibody (Abcam) in dilution buffer was then added to each well of the plate. After that the ELISA plates were allowed to incubate for 60 min at RT then plates were washed 3 times with 250 μl/well washing buffer. Finally, 100 μl/well of TMB was added to each well and the reaction was terminated using 0.64M H₂SO₄. The plates were read on a Thermo Multiscan FC at 450 nM (see FIG. 6F).

B1: 26F5 (antibody, V domains shown)
VH: QVQLQQPGAELVKPGASVKLSCKASGYTFPSYWMHWMKQRPGQGLEWIGMIQPSTSGTIYNERFKNQVTLTVDKSSSTAYMQLSSQTSEDSAVYYCARGTGTVDYFDYWGQGTTLTVSS
VL: DIVLTQSPASLAVSLGQRATISCRASESVDSYGNSFIHWYQQKPGQPPKLLIHRASNLESGIPATFSGSGSRTDFTLTINPVEADDVATYYCQQSKEDPYTFGGGTKLEIK
notes: Mouse monoclonal from hybridoma; also called mouse monoclonal antibody 26F5
- binding result (hPD-L2-Fc): no binding (tested: 2 ug/ml)
- Mean OD450 [1]: 1.53 OD450
- OD450 nM of sample-1 [1]: 1.39 OD450
- OD450 nM of sample-2 [1]: 1.68 OD450
- % of binding of Ab to E58A mutant vs. that to WT PD-L1 [2]: 60.6%
- Mean OD450 [2]: 0.93 OD450
- OD450 nM of sample-1 [2]: 1.18 OD450
- OD450 nM of sample-2 [2]: 0.678 OD450
- EC50 (read off the curve) [3]: ~0.003 µg/mL
- IC50 (read off the curve) [4]: ~0.02 µg/mL
- binding result [5]: no binding (tested: 20 ug/ml)
